Laboratory results from article PMC7532178, “Interaction of protocadherin-15 with the scaffold protein whirlin supports its anchoring of hair-bundle lateral links in cochlear hair cells” (Scientific Reports, 2020).
No end group written: not given here. *: point of attachment. Biotin = O=C1N[C@H]2[C@H](CS[C@H]2CCCCC(=O)*)N1; TTDS = trioxatridecan-succinamic acid spacer

T1: harmonin-NTD-PDZ1 (aa 1-192) (UniProt Q9ES64 1-192)
T1 construct: extra 7 aa at the N-terminus of all recombinant proteins of the study; harmonin, residues 1-192 (NTD and PDZ1), numbers on GenBank AF228925.1; also called NTD-PDZ1-Hp domain of harmonin; source: E. coli BL21 (DE3) codonPlus-RIPL, purified (Glutathione Sepharose 4B, GST removed by TEV proteinase, SEC)
T1 sequence: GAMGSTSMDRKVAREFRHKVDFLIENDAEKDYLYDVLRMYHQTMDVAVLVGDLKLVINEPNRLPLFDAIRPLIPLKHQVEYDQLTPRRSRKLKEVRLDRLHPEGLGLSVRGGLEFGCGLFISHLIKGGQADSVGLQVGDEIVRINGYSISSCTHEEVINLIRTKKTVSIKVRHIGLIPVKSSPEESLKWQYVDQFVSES

T2: harmonin-PDZ2 (aa residues 197-308) (UniProt Q9ES64 197-308)
T2 construct: extra 7 aa at the N-terminus of all recombinant proteins of the study; harmonin, residues 197-308 (PDZ2), numbers on GenBank AF228925.1; also called PDZ2 domain of harmonin; source: E. coli BL21 (DE3) codonPlus-RIPL, purified (Glutathione Sepharose 4B, GST removed by TEV proteinase, SEC)
T2 sequence: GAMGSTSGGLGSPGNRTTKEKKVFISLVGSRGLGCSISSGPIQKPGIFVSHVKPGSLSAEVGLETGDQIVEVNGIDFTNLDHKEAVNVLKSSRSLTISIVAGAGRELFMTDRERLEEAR

T3: whirlin-NTR (aa residues 2-147) (mouse, UniProt Q80VW5-1 2-147)
T3 construct: extra 7 aa at the N-terminus of all recombinant proteins of the study; also called entire NTR of whirlin (containing the HHD1 domain); source: E. coli BL21 (DE3) codonPlus-RIPL, purified (Glutathione Sepharose 4B, GST removed by TEV proteinase, SEC)
T3 sequence: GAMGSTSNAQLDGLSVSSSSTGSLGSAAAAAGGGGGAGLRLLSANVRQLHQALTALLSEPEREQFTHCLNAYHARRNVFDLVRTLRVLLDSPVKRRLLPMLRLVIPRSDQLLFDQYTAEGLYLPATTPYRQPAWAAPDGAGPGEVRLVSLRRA

T4: whirlin-NTR-PDZ1-Hp1 (aa residues 2-265) (mouse, UniProt Q80VW5-1 2-265)
T4 construct: extra 7 aa at the N-terminus of all recombinant proteins of the study; whirlin (long isoform, L-whirlin), residues 2-265: NTR (with HHD1), PDZ1 and hairpin Hp1; The methods call the 2-265 construct whirlin-NTR-PDZ1; also called NTR-PDZ1-Hp1 whirlin fragment; Nter-PDZ1-Hp1; source: E. coli BL21 (DE3) codonPlus-RIPL, purified (Glutathione Sepharose 4B, GST removed by TEV proteinase, SEC)
T4 sequence: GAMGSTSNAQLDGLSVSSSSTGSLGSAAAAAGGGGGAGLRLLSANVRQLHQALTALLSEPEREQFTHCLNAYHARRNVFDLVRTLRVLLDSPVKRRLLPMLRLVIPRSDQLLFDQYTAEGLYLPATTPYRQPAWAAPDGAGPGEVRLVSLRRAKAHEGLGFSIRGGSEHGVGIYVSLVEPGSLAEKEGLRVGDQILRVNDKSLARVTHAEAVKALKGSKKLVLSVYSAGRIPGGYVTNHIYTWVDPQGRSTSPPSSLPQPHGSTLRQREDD

T5: whirlin-PDZ1 (aa residues 137-228) (mouse, UniProt Q80VW5-1 137-228)
T5 construct: extra 7 aa at the N-terminus of all recombinant proteins of the study; whirlin, residues 137-228: PDZ1 domain; also called whirlin PDZ1 domain alone; source: E. coli BL21 (DE3) codonPlus-RIPL, purified (Glutathione Sepharose 4B, GST removed by TEV proteinase, SEC)
T5 sequence: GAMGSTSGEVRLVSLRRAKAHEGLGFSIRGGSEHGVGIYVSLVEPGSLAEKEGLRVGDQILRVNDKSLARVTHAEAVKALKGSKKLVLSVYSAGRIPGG

T6: whirlin-HHD1 (aa residues 30-121) (mouse, UniProt Q80VW5-1 30-121)
T6 construct: extra 7 aa at the N-terminus of all recombinant proteins of the study; whirlin, residues 30-121: harmonin-homology domain 1 (HHD1); also called HHD1 domain alone; source: E. coli BL21 (DE3) codonPlus-RIPL, purified (Glutathione Sepharose 4B, GST removed by TEV proteinase, SEC)
T6 sequence: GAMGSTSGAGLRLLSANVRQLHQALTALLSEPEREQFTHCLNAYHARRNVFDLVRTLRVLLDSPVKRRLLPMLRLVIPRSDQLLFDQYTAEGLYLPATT

B1: PCDH15-CD3 C-terminal peptide (biotin-TTDS-MGPWNSLHIPMTKL) (peptide)
peptide: {Biotin-TTDS}-MGPWNSLHIPMTKL
notes: C-terminal 14 aa of protocadherin-15 isoform CD3, including the PBM; source: synthetic peptide (Eurogentec); not shown: biotin, N-terminal, kept
B2: PCDH15-CD2 C-terminal peptide (biotin-TTDS-GANSEQYNTAL) (peptide)
peptide: {Biotin-TTDS}-GANSEQYNTAL
notes: C-terminal 11 aa of protocadherin-15 isoform CD2, including the PBM; source: synthetic peptide (Eurogentec); not shown: biotin, N-terminal, kept
B3: PCDH15-CD1 C-terminal peptide (biotin-TTDS-GIDVQPHSQSTSL) (peptide)
peptide: {Biotin-TTDS}-GIDVQPHSQSTSL
notes: C-terminal 13 aa of protocadherin-15 isoform CD1, including the PBM; source: synthetic peptide (Eurogentec); not shown: biotin, N-terminal, kept

molecular target: T1, harmonin-NTD-PDZ1 (aa 1-192); assay: SPR; harmonin fragments or full-length harmonin-a1 with C-terminal peptides; Fig. S10 and data not shown; conditions: both partners purified

Row | Kd | Binder
1 | > 200 µM | B1
2 | > 200 µM | B2
3 | > 200 µM | B3

molecular target: T2, harmonin-PDZ2 (aa residues 197-308); assay: as above; conditions: both partners purified

Row | Kd | Binder
4 | > 200 µM | B1
5 | > 200 µM | B2
6 | > 200 µM | B3

molecular target: T3, whirlin-NTR (aa residues 2-147); assay: SPR; ProteOn XPR 36; N-terminally biotinylated peptides captured on a Neutravidin NLC sensor chip, whirlin fragments flowed as analytes at 20 μL/min for 2 min; 250 mM NaCl, 50 mM Tris pH 7.5, 0.5 mM TCEP; steady-state fit Req = (Rmax*C)/(Kd+C); mean of three experiments; Figure 4B shows the responses at 10 μM; conditions: both partners purified

Row | Kd | Binder
7 | > 1000 µM | B1
8 | > 1000 µM | B2
9 | > 1000 µM | B3

molecular target: T4, whirlin-NTR-PDZ1-Hp1 (aa residues 2-265); assay: as above; conditions: both partners purified

Row | Kd | Binder
10 | 4.2 µM | B1
11 | 8.5 µM | B2
12 | 8.8 µM | B3

molecular target: T5, whirlin-PDZ1 (aa residues 137-228); assay: as above; conditions: both partners purified

Row | Kd | Binder
13 | 34 µM | B1
14 | 147 µM | B2
15 | 106 µM | B3

molecular target: T6, whirlin-HHD1 (aa residues 30-121); assay: as above; conditions: both partners purified

Row | Kd | Binder
16 | > 1000 µM | B1
17 | > 1000 µM | B2
18 | > 1000 µM | B3
